Test [1] has as its target recombinant bovine FcRn (bovine) (UniProt F6R592). Description: SPR Biacore, bFcRn on SA sensor, pH 7.4, 25 C. On the technique in general: Surface plasmon resonance follows binding to a sensor surface in real time, without labels.
The target is the same in test [2]. Description: SPR Biacore, bFcRn, pH 6; against bIgG1a and bIgG3a mAbs.
Test [3] deals with recombinant bovine Fcg2R (bovine). Description: SPR Biacore, bFcg2R amine-coupled on CM5, pH 7.4, 15 C.
Test [4] has as its target recombinant bovine FcRn (bovine) (UniProt F6R592). Description: SPR Biacore, bFcRn on SA sensor, pH 7.4, 25 C. This is another data set of the same source.
The target is the same in test [5]. As to the kind of experiment: SPR Biacore, bFcRn on SA sensor, pH 6, 25 C.
Test [6] has the same target. Description: SPR Biacore, bFcRn on SA sensor, pH 6, 25 C. The source holds these as a separate data set.
Test [7] has as its target Fc gamma receptors on bovine alveolar macrophages. As to the kind of experiment: cell-based or functional assay.

recombinant bovine FcRn (bovine), sequence (chain, as listed by the source, chain 1 of 2): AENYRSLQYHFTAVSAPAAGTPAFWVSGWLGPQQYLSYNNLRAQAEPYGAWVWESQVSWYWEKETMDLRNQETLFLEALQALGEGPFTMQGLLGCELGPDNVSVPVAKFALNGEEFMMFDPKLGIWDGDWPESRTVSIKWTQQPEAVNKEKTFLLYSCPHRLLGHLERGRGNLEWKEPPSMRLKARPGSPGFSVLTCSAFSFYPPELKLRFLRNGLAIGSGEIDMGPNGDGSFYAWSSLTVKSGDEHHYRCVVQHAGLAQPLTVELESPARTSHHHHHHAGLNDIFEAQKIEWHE
recombinant bovine FcRn (bovine), sequence (P01888 21-118, chain 2 of 2): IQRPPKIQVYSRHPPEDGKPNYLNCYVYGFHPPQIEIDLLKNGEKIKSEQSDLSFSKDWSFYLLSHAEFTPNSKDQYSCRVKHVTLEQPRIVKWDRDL
recombinant bovine Fcg2R (bovine), sequence (main, as listed by the source): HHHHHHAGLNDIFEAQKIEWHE

Take bIgG2a wildtype mAb (antibody): the Kd (in general, the equilibrium constant for the complex coming apart) in test [1] was found to be 147 nM; in test [3], 13.3 nM; in test [4], 131 nM; in test [5], 0.254 nM; in test [6], 3.06 nM. For the same substance, in test [2], the fold higher affinity than bIgG1a and bIgG3a was determined as 10 fold.

Substance “CTLA4bG2a (from UniProt Q9XSI1 36-161) (Fc fusion)” gave an ADCP EC50 Value in test [7] of 0.014 µg/mL.

“CTLA4 Fc bIgG1a (from UniProt Q9XSI1 36-161) (Fc fusion)” displayed an ADCP EC50 Value in test [7] of 0.003 µg/mL.

In test [7], “CTLA4 Fc bIgG3a (from UniProt Q9XSI1 36-161) (Fc fusion)” returned an ADCP EC50 Value of 0.029 µg/mL.

For the origin of these results see patent US20230416410A1.
